The results in this text go back to the supplement of paper PMC9112550, “Optimization of the antimicrobial peptide Bac7 by deep mutational scanning” (BMC Biology, 2022).

The subject of the data set is Escherichia coli TOP10. The data set can be described thus: shrunken log2 fold change of peptide-encoding DNA abundance (4.5 h post-induction vs induction); higher = less antimicrobial activity (less host growth inhibition). Particulars: time post-induction: 4.5 h; library: site-saturation at positions 5, 18, 19, 20.
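Note: peptides expressed intracellularly from a pBAD plasmid library in pooled LB shake-flask culture, induced with 0.3% L-arabinose, DNA abundance read by NGS, three biological replicates, DESeq2 with apeglm shrinkage.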

For the sequence RRIRDRPPRLPRPRPRPCNEPRP, the “shrunken log2 fold change” value was -0.0633.

Turning to RRIRQRPPRLPRPRPRPISNPRP, the “shrunken log2 fold change” value was -0.223.

RRIRTRPPRLPRPRPRPWMAPRP: the “shrunken log2 fold change” value was -0.295.

Regarding RRIRTRPPRLPRPRPRPFSQPRP, the “shrunken log2 fold change” value was -0.0652.

As for RRIRVRPPRLPRPRPRPVDKPRP, the “shrunken log2 fold change” value was -0.278.

On to RRIRMRPPRLPRPRPRPGLEPRP, for which the “shrunken log2 fold change” value stood at 1.61.

Take RRIRKRPPRLPRPRPRPVGSPRP: the “shrunken log2 fold change” value amounted to 0.178.

RRIRDRPPRLPRPRPRPCWWPRP: the “shrunken log2 fold change” value turned out to be 0.249.

For the sequence RRIRDRPPRLPRPRPRPARLPRP, the “shrunken log2 fold change” value was 0.382.

Take RRIRHRPPRLPRPRPRPIDFPRP: the “shrunken log2 fold change” value was 0.0271.

In the case of RRIRARPPRLPRPRPRPKWAPRP, the “shrunken log2 fold change” value is 0.688.

For the sequence RRIRRRPPRLPRPRPRPVFWPRP, the “shrunken log2 fold change” value is 0.369.

Regarding RRIRERPPRLPRPRPRPCPFPRP, the “shrunken log2 fold change” value was -1.04.

As to RRIRQRPPRLPRPRPRPNDKPRP, the “shrunken log2 fold change” value was -0.335.

With RRIRGRPPRLPRPRPRPCPVPRP, the “shrunken log2 fold change” value is 0.197.

Consider RRIRLRPPRLPRPRPRPNRCPRP, for which the “shrunken log2 fold change” value is -0.231.

As for RRIRIRPPRLPRPRPRPHHDPRP, the “shrunken log2 fold change” value was -0.515.

For the sequence RRIRARPPRLPRPRPRPAWMPRP, the “shrunken log2 fold change” value is -0.00906.

For RRIRLRPPRLPRPRPRPQEAPRP, the “shrunken log2 fold change” value is 0.0514.

On to RRIRSRPPRLPRPRPRPTMGPRP, for which the “shrunken log2 fold change” value is -0.238.

On to RRIRARPPRLPRPRPRPEKMPRP, for which the “shrunken log2 fold change” value amounted to 0.706.

For RRIRCRPPRLPRPRPRPQRIPRP, the “shrunken log2 fold change” value came to 0.0509.

On to RRIRRRPPRLPRPRPRPYMSPRP, for which the “shrunken log2 fold change” value was -0.054.

For the sequence RRIRKRPPRLPRPRPRPPAVPRP, the “shrunken log2 fold change” value amounted to 0.847.

On to RRIRMRPPRLPRPRPRPHLWPRP, for which the “shrunken log2 fold change” value is 0.374.

On to RRIRCRPPRLPRPRPRPEWVPRP, for which the “shrunken log2 fold change” value was determined as 0.293.

RRIRKRPPRLPRPRPRPGTPPRP: the “shrunken log2 fold change” value worked out at 0.824.

On to RRIRCRPPRLPRPRPRPKRGPRP, for which the “shrunken log2 fold change” value is 0.27.

Take RRIRCRPPRLPRPRPRPSRWPRP: the “shrunken log2 fold change” value amounted to 0.599.

Regarding RRIRRRPPRLPRPRPRPKPNPRP, the “shrunken log2 fold change” value is 0.531.

As for RRIRDRPPRLPRPRPRPCLDPRP, the “shrunken log2 fold change” value is -0.0178.

On to RRIRCRPPRLPRPRPRPPLYPRP, for which the “shrunken log2 fold change” value is 0.429.

Consider RRIRERPPRLPRPRPRPLSMPRP, for which the “shrunken log2 fold change” value was -0.242.

RRIRLRPPRLPRPRPRPSKEPRP: the “shrunken log2 fold change” value is -0.4.

For the sequence RRIRKRPPRLPRPRPRPANHPRP, the “shrunken log2 fold change” value is -0.235.

Consider RRIRFRPPRLPRPRPRPNYPPRP, for which the “shrunken log2 fold change” value is -0.268.

Take RRIRRRPPRLPRPRPRPIDFPRP: the “shrunken log2 fold change” value was determined as 0.137.

As to RRIRMRPPRLPRPRPRPTMFPRP, the “shrunken log2 fold change” value is 0.137.

RRIRGRPPRLPRPRPRPCPGPRP: the “shrunken log2 fold change” value is -0.0819.

For RRIRFRPPRLPRPRPRPSNQPRP, the “shrunken log2 fold change” value was determined as 0.0631.

As to RRIRWRPPRLPRPRPRPGVLPRP, the “shrunken log2 fold change” value was 0.0321.

As for RRIRCRPPRLPRPRPRPSDAPRP, the “shrunken log2 fold change” value is -0.0145.

As for RRIRYRPPRLPRPRPRPVTKPRP, the “shrunken log2 fold change” value was -0.543.

RRIRTRPPRLPRPRPRPTYMPRP: the “shrunken log2 fold change” value was -0.32.

Take RRIRCRPPRLPRPRPRPWTTPRP: the “shrunken log2 fold change” value is -0.138.

Regarding RRIRCRPPRLPRPRPRPDDRPRP, the “shrunken log2 fold change” value was -0.0204.

With RRIRQRPPRLPRPRPRPEAMPRP, the “shrunken log2 fold change” value was determined as 0.00408.

As for RRIRQRPPRLPRPRPRPNYLPRP, the “shrunken log2 fold change” value is -0.134.

Turning to RRIRARPPRLPRPRPRPTEPPRP, the “shrunken log2 fold change” value was 0.797.

As to RRIRERPPRLPRPRPRPTPVPRP, the “shrunken log2 fold change” value amounted to 0.059.

In the case of RRIRERPPRLPRPRPRPVVIPRP, the “shrunken log2 fold change” value is -0.251.

On to RRIRDRPPRLPRPRPRPVMYPRP, for which the “shrunken log2 fold change” value is -0.166.

In the case of RRIRHRPPRLPRPRPRPEDCPRP, the “shrunken log2 fold change” value was -0.0178.

Consider RRIRLRPPRLPRPRPRPYMVPRP, for which the “shrunken log2 fold change” value is -0.288.

With RRIRYRPPRLPRPRPRPWHQPRP, the “shrunken log2 fold change” value was -0.883.

For RRIRVRPPRLPRPRPRPPLPPRP, the “shrunken log2 fold change” value is 0.325.

Turning to RRIRRRPPRLPRPRPRPNHFPRP, the “shrunken log2 fold change” value was -0.0507.

As to RRIRFRPPRLPRPRPRPYPEPRP, the “shrunken log2 fold change” value is -0.488.

Take RRIRSRPPRLPRPRPRPMCCPRP: the “shrunken log2 fold change” value worked out at 0.109.

RRIRYRPPRLPRPRPRPYNAPRP: the “shrunken log2 fold change” value was -0.471.

Take RRIRKRPPRLPRPRPRPPWIPRP: the “shrunken log2 fold change” value is -0.0983.

RRIRMRPPRLPRPRPRPTMYPRP: the “shrunken log2 fold change” value was 0.187.

In the case of RRIRNRPPRLPRPRPRPTFVPRP, the “shrunken log2 fold change” value was -0.185.

Turning to RRIRSRPPRLPRPRPRPLYKPRP, the “shrunken log2 fold change” value is -0.486.

As for RRIRNRPPRLPRPRPRPRVTPRP, the “shrunken log2 fold change” value worked out at 0.0249.

As for RRIRVRPPRLPRPRPRPAMRPRP, the “shrunken log2 fold change” value came to 0.6.

Consider RRIRYRPPRLPRPRPRPTFGPRP, for which the “shrunken log2 fold change” value was -0.0386.

As to RRIRWRPPRLPRPRPRPSWYPRP, the “shrunken log2 fold change” value is -0.239.

In the case of RRIRCRPPRLPRPRPRPARFPRP, the “shrunken log2 fold change” value turned out to be 0.558.

Take RRIRCRPPRLPRPRPRPTVQPRP: the “shrunken log2 fold change” value turned out to be 0.0608.

On to RRIRHRPPRLPRPRPRPFEIPRP, for which the “shrunken log2 fold change” value was -0.0931.

As for RRIRDRPPRLPRPRPRPYSNPRP, the “shrunken log2 fold change” value was -0.045.

Consider RRIRVRPPRLPRPRPRPHDSPRP, for which the “shrunken log2 fold change” value came out at 0.0311.

For RRIRMRPPRLPRPRPRPKNLPRP, the “shrunken log2 fold change” value was -0.102.

As for RRIRFRPPRLPRPRPRPREPPRP, the “shrunken log2 fold change” value is 0.208.

In the case of RRIRCRPPRLPRPRPRPRPWPRP, the “shrunken log2 fold change” value was found to be 0.432.

For the sequence RRIRDRPPRLPRPRPRPAQWPRP, the “shrunken log2 fold change” value stood at 0.395.

Take RRIRGRPPRLPRPRPRPWRKPRP: the “shrunken log2 fold change” value stood at 0.12.

Regarding RRIRFRPPRLPRPRPRPAFPPRP, the “shrunken log2 fold change” value stood at 0.00578.

RRIRLRPPRLPRPRPRPCNIPRP: the “shrunken log2 fold change” value is -0.00101.

As for RRIRWRPPRLPRPRPRPGIHPRP, the “shrunken log2 fold change” value was determined as 0.11.

For RRIRKRPPRLPRPRPRPRTRPRP, the “shrunken log2 fold change” value stood at 0.618.

For RRIRGRPPRLPRPRPRPRCPPRP, the “shrunken log2 fold change” value stood at 1.4.

Turning to RRIRHRPPRLPRPRPRPKPRPRP, the “shrunken log2 fold change” value was determined as 0.177.

As to RRIRSRPPRLPRPRPRPHRRPRP, the “shrunken log2 fold change” value amounted to 0.0441.

Turning to RRIRMRPPRLPRPRPRPDSPPRP, the “shrunken log2 fold change” value amounted to 0.0492.

With RRIRCRPPRLPRPRPRPPMHPRP, the “shrunken log2 fold change” value turned out to be 0.183.

For the sequence RRIRCRPPRLPRPRPRPHNTPRP, the “shrunken log2 fold change” value is -0.246.

RRIRWRPPRLPRPRPRPEEAPRP: the “shrunken log2 fold change” value worked out at 0.113.

For the sequence RRIRMRPPRLPRPRPRPDSHPRP, the “shrunken log2 fold change” value is -0.025.

Consider RRIRRRPPRLPRPRPRPQRSPRP, for which the “shrunken log2 fold change” value was determined as 0.302.

Take RRIRERPPRLPRPRPRPKCQPRP: the “shrunken log2 fold change” value was -0.178.

On to RRIRCRPPRLPRPRPRPSEDPRP, for which the “shrunken log2 fold change” value was -0.112.

With RRIRDRPPRLPRPRPRPMQDPRP, the “shrunken log2 fold change” value was -0.0272.

For RRIRFRPPRLPRPRPRPEQTPRP, the “shrunken log2 fold change” value is -0.0498.

Consider RRIRYRPPRLPRPRPRPIVCPRP, for which the “shrunken log2 fold change” value is -0.134.

Take RRIRDRPPRLPRPRPRPWYRPRP: the “shrunken log2 fold change” value is -0.0745.

For RRIRVRPPRLPRPRPRPFRFPRP, the “shrunken log2 fold change” value is 0.0201.

As to RRIRDRPPRLPRPRPRPNTGPRP, the “shrunken log2 fold change” value was -0.098.

In the case of RRIRRRPPRLPRPRPRPFVNPRP, the “shrunken log2 fold change” value is -0.049.

As for RRIRYRPPRLPRPRPRPYHGPRP, the “shrunken log2 fold change” value was -0.139.

Take RRIRCRPPRLPRPRPRPWFQPRP: the “shrunken log2 fold change” value was -0.2.

As to RRIRLRPPRLPRPRPRPRPPPRP, the “shrunken log2 fold change” value was 1.58.

In the case of RRIRIRPPRLPRPRPRPDPVPRP, the “shrunken log2 fold change” value is -0.0546.

In the case of RRIRARPPRLPRPRPRPIYHPRP, the “shrunken log2 fold change” value was -0.359.

Take RRIRHRPPRLPRPRPRPECYPRP: the “shrunken log2 fold change” value is -0.0176.

For RRIRKRPPRLPRPRPRPMILPRP, the “shrunken log2 fold change” value is -0.388.

As for RRIRWRPPRLPRPRPRPTKNPRP, the “shrunken log2 fold change” value came to 0.159.

For the sequence RRIRKRPPRLPRPRPRPNWQPRP, the “shrunken log2 fold change” value was found to be 0.0483.

RRIRNRPPRLPRPRPRPFCRPRP: the “shrunken log2 fold change” value was -0.223.

In the case of RRIRFRPPRLPRPRPRPCCPPRP, the “shrunken log2 fold change” value is -0.468.

With RRIRNRPPRLPRPRPRPQAPPRP, the “shrunken log2 fold change” value turned out to be 0.31.

For RRIRNRPPRLPRPRPRPFYAPRP, the “shrunken log2 fold change” value was -0.281.

In the case of RRIRYRPPRLPRPRPRPVDVPRP, the “shrunken log2 fold change” value was -0.359.

Take RRIRSRPPRLPRPRPRPYAQPRP: the “shrunken log2 fold change” value is -0.535.

Take RRIRRRPPRLPRPRPRPFWHPRP: the “shrunken log2 fold change” value is -0.0292.

For RRIRLRPPRLPRPRPRPSSQPRP, the “shrunken log2 fold change” value is -0.0758.

As to RRIRVRPPRLPRPRPRPCNGPRP, the “shrunken log2 fold change” value was 0.00489.

For RRIRQRPPRLPRPRPRPMHSPRP, the “shrunken log2 fold change” value is -0.165.

For the sequence RRIRARPPRLPRPRPRPYSLPRP, the “shrunken log2 fold change” value was -0.187.

Regarding RRIRYRPPRLPRPRPRPARWPRP, the “shrunken log2 fold change” value was 0.135.

For the sequence RRIRIRPPRLPRPRPRPYMYPRP, the “shrunken log2 fold change” value was -0.91.

Consider RRIRRRPPRLPRPRPRPSEMPRP, for which the “shrunken log2 fold change” value came to 0.0772.

With RRIRSRPPRLPRPRPRPRRIPRP, the “shrunken log2 fold change” value turned out to be 0.135.

Turning to RRIRDRPPRLPRPRPRPNDKPRP, the “shrunken log2 fold change” value is -0.555.
